Measured values published in patent US20230257458A1 (SUNSHINE LAKE PHARMA, published 2023).

Legend:
IL-11-Fc protein = target: T1, IL-11-Fc protein (UniProt P20809 22-199, limits assumed); assay: flow competition: IL-11-Fc + antibody dilutions on membrane-IL-11R CHO cells
T1 construct: also called IL-11 recombinant protein with Fc tag; not shown: Fc tag
T1 sequence (looked up): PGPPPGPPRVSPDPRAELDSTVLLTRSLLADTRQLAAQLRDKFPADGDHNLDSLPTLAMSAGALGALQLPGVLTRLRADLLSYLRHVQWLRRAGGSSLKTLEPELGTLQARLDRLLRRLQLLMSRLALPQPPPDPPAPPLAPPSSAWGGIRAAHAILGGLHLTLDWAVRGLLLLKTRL
Description: Then the plate was incubated with 1.5*10\hat{ }5 membrane-IL-11R CHO cells (100 ul/well) for 1 h at room temperature. After incubation, the plate was centrifuged at 1500 rpm for 5 min, washed three times with PBS, and 1:400 diluted flow secondary antibody Goat-anti-Fc-FITC (Abcam, ab98529) was added with 200 ul/well. Then, the plate was incubated at 4° C. for 1 h, centrifuged at 1500 rpm for 5 min, washed three times with PBS, resuspended cells in 180 ul PBS, and detected by flow cytometry.

[1] = target: T2, recombinant OSM (Genscript-z03132) (UniProt P13725 26-234, limits assumed); assay: ELISA, cytokine coated
T2 sequence (looked up): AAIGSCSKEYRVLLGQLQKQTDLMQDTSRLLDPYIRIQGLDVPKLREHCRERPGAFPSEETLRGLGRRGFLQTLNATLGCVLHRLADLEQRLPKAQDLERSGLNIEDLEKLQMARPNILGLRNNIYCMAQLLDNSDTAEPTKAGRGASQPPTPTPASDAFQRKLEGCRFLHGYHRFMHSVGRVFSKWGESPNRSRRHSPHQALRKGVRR

[2] = target: recombinant IL-6 (Sinobiological-10395-HNAE) (UniProt P05231 30-212); assay: ELISA, cytokine coated
[3] = target: T3, recombinant CNTF (R&D systems, 257-NT-010) (UniProt P26441 2-200); assay: ELISA, cytokine coated
T3 sequence (looked up): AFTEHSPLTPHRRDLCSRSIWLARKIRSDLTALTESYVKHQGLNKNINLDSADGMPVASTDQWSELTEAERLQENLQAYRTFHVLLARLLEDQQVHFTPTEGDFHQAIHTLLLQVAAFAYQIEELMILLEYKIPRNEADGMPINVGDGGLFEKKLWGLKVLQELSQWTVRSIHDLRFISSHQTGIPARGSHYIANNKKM

[4] = target: T4, recombinant CT-1 (R&D systems, 612-CD-010) (UniProt Q16619 2-201, limits assumed); assay: ELISA, cytokine coated
T4 sequence (looked up): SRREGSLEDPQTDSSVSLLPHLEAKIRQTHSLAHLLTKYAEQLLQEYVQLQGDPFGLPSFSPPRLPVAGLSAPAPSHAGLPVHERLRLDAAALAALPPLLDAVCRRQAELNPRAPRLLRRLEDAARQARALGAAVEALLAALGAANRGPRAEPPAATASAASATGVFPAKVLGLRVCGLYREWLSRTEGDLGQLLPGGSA

[5] = target: T5, recombinant IL-27 (R&D systems, 2526-IL-010) (UniProt Q8NEV9 29-243; Q14213 21-229); assay: ELISA, cytokine coated
T5 sequence (looked up) 1: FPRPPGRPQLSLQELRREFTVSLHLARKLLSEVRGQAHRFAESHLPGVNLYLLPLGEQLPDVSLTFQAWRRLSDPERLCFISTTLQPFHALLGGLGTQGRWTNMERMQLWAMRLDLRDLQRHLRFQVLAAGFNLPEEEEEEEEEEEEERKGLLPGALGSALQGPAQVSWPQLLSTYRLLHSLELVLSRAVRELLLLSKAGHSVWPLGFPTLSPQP
T5 sequence (looked up) 2: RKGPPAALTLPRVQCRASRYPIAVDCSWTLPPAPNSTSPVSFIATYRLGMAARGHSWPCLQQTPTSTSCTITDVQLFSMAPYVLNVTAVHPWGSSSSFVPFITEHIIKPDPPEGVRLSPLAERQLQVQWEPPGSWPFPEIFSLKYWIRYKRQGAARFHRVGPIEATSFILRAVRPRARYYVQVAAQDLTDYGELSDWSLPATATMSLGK

[6] = target: recombinant LIF (Peprotech, 300-05) (UniProt P15018 23-202); assay: ELISA, cytokine coated
recombinant LIF (Peprotech, 300-05), sequence (P15018 23-202 limits assumed): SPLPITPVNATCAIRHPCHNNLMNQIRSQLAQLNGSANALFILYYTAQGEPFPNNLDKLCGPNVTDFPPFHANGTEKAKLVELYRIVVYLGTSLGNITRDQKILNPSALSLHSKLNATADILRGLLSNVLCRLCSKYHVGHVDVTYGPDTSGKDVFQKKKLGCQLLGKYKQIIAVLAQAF

[7] = target: T6, recombinant CLC (R&D systems, 962-CL-050) (UniProt Q9UBD9 28-225); assay: ELISA, cytokine coated
T6 sequence (looked up): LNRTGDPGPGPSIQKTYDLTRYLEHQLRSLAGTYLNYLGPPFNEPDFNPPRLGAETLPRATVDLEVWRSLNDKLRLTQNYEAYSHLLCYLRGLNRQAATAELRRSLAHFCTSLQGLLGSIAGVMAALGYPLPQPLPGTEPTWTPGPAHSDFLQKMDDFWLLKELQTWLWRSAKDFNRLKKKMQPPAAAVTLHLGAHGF

[8] = target: T7, recombinant IL-31 (Peprotech, 200-31) (UniProt Q6EBC2 24-164); assay: ELISA, cytokine coated
T7 sequence (looked up): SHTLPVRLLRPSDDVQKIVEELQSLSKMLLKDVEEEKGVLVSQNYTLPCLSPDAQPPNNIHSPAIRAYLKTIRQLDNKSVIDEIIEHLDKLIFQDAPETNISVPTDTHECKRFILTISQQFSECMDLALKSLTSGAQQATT

IL-11 protein [9] = target: T8, IL-11 protein (UniProt P20809 22-199, limits assumed); assay: ELISA, monoclonal hybridoma supernatant on IL-11
T8 construct: also called IL-11 antigen
T8 sequence (looked up): T1 sequence (looked up)
Text: Cell lines with high secretion of specific antibody were selected for expanded culture and cryopreservation.

IL-11 protein [10] = target: T8, IL-11 protein; assay: SPR (Biacore), antibody captured, 400 nM IL-11 as analyte
Description: The measure method included the steps of capturing the humanized antibody at a flow rate of 10 ul/min. […] Finally the chip was regenerated with 10 mM glycine buffer.

[11] = target: T9, recombinant human protein antigen hu-IL-11-His tag (human, UniProt P20809 22-199); assay: BLI, IL-11 (His tag) on Ni-NTA sensor, antibody as analyte
T9 construct: Expressed in CHO, Ni column and Superdex75; not shown: His tag
T9 sequence (looked up): T1 sequence (looked up)
Description: Bio-Layer Interferometry (BLI) was used for binding affinity determination. […] The analytes were diluted in 7 concentration gradients, the binding time was 60 s and the dissociation time was 1000 s. The buffer was 20 mM PBS, 0.15M NaCl, 0.1% BSA, 0.05% Tween 20, pH 7.

B1: 5-20E11-5F2 (antibody, human IgG1, kappa, V domains shown)
VH: QVQLQQSGAELVRPGTSAKISCKASDYTFTNYWLGWLKQRPGHGLEWIGHIYPGGGYTNYNEKFKGKATLTADTSSSTAYMQLSSLTSEDSAVYFCARVRSGNDALDFWGQGTSVTVSS
VL: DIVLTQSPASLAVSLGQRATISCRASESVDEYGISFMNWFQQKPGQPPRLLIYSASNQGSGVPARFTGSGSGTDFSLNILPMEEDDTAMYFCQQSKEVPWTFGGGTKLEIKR
notes: also called 5-20E11-5F2 antibody; 5-20E11-5F2 mAb
EC50 (IL-11-Fc protein): 7.54 µg/mL
binding result [1]: no binding
binding result [2]: no binding
binding result [3]: no binding
binding result [4]: no binding
binding result [5]: no binding
binding result [6]: no binding
binding result [7]: no binding
binding result [8]: no binding
OD450 (IL-11 protein [9]): 1.6
Kd (IL-11 protein [10]): 2.09 nM
koff (IL-11 protein [10]): 0.000122 s⁻¹
kon (IL-11 protein [10]): 58400 M⁻¹ s⁻¹
Kd [11]: 0.069 nM
koff [11]: 1.21e-05 s⁻¹
kon [11]: 175000 M⁻¹ s⁻¹
